From the supplement of paper PMC10724198
± gives the standard deviation of the averaged measurements.

Test system: Saccharomyces cerevisiae
Assay: protein stability index of tFT-peptide fusion (C-terminal peptide) (PSI (0-1 scale)); higher = more stable (slower turnover)
Conditions: genetic background: wild type; temperature: 30 C
Method: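 Multiplexed protein stability (MPS) profiling in S. cerevisiae. Random 12-aa peptides (tFT-X12 library) are fused to the C-terminus of a sfGFP-mCherry tandem fluorescent timer, after mCherry and a GGGS linker. Cells are FACS-sorted into 8 mCherry/sfGFP bins and deep-sequenced. The protein stability index (PSI) is the read-weighted bin average, scaled from 0 (unstable) to 1 (stable). Only peptides with >10 reads are reported; cells were grown at 30 °C in SC-His with glucose.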
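Also: PSI is a weighted mean of sequencing reads over stability bins, variants kept only with over 10 reads, mCherry proximal and sfGFP distal, peptide attached via GGGS linker.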

Row | Sequence | protein stability index
1 | GLVVATECGGRP | 0.648 ± 0.024
2 | GLVVWFFQSPHF | 0.597 ± 0.036
3 | GLYAVHEAGWRP | 0.701 ± 0.089
4 | GLYVDRTVEVGG | 0.6228 ± 0.0035
5 | GMADVCRVGSRG | 0.674 ± 0.033
6 | GMRAGLGRWRSM | 0.737 ± 0.1
7 | GNELLINRVKPR | 0.698 ± 0.0085
8 | GNGRGKKEGPKN | 0.657 ± 0.01
9 | GNIKPNEDRGGP | 0.793 ± 0.027
10 | GNRVGQREEIEK | 0.655 ± 0.023
11 | GNRWSLTVTPNR | 0.69 ± 0.028
12 | GNSAGSGGGGRF | 0.706 ± 0.061
13 | GNSNDPALQPKQ | 0.68 ± 0.044
14 | GPALLLHRLTAP | 0.684 ± 0.066
15 | GPCPHLGLVVES | 0.703 ± 0.34
16 | GPFPMRRTFRFA | 0.667 ± 0.056
17 | GPGRGWQGGPKL | 0.739 ± 0.023
18 | GPIGVMLCNHHS | 0.674 ± 0.015
19 | GPPPAPPPLDAL | 0.734 ± 0.053
20 | GPPPPATPTPPR | 0.767 ± 0.075
21 | GPRSLVEITITD | 0.669 ± 0.029
22 | GPSLLAAQAHTN | 0.704 ± 0.038
23 | GPSQLRLSSCSF | 0.716 ± 0.041
24 | GPSTPPPRAPGT | 0.7045 ± 0.0031
25 | GPTPAPSASRCF | 0.6114 ± 0.0058

Row | Sequence | protein stability index
26 | GPVFLPLFWAGV | 0.6846 ± 0.0051
27 | GPVGPGECYDYT | 0.706 ± 0.00044
28 | GPVLILLSNNEM | 0.731 ± 0.061
29 | GPVTPADASPHC | 0.686 ± 0.034
30 | GQFASFQSTRPP | 0.754 ± 0.077
31 | GQGKWGGGGDER | 0.68276 ± 0.0003
32 | GQKRKKKGGKEE | 0.685 ± 0.065
33 | GQLAERYRPARP | 0.6903 ± 0.003
34 | GQNASYFPRRTG | 0.643 ± 0.052
35 | GQRGGRGKENSD | 0.629 ± 0.04
36 | GQTTVLPSIYKR | 0.673 ± 0.047
37 | GQWCGRLLRSGS | 0.6845 ± 0.0059
38 | GRCWAGAMGVVG | 0.71 ± 0.015
39 | GRETGGGKSRRK | 0.687 ± 0.013
40 | GRFKLCWWCCGV | 0.724 ± 0.035
41 | GRGAKPYIKQVY | 0.721 ± 0.034
42 | GRGGGGGLWVRV | 0.651 ± 0.023
43 | GRGGSIGEEWGG | 0.693 ± 0.021
44 | GRGLFRVVGLWV | 0.614 ± 0.043
45 | GRGLRWSWGCGG | 0.693 ± 0.064
46 | GRGLVSWEAGGV | 0.716 ± 0.018
47 | GRKSESEEEQRR | 0.677 ± 0.052
48 | GRLHHYGRCAQG | 0.664 ± 0.02
49 | GRLPPYLSRRLR | 0.7039 ± 0.0012
50 | GRLWGGIKGGMG | 0.663 ± 0.0096

Row | Sequence | protein stability index
51 | GRRLSGWGAWVV | 0.724 ± 0.063
52 | GRSAVRADFPFF | 0.703 ± 0.16
53 | GRSITTSCTTER | 0.673 ± 0.036
54 | GRSNRRPWRSGL | 0.649 ± 0.018
55 | GRTDRPTDINSN | 0.677 ± 0.052
56 | GRTNQKKEWIIR | 0.718 ± 0.01
57 | GRVAGNERGGGR | 0.6083 ± 0.006
58 | GRVGCGRNRLWS | 0.67 ± 0.053
59 | GRVGFSRSFKCC | 0.641 ± 0.14
60 | GRVGGGVEPCFV | 0.679 ± 0.021
61 | GRVGRGGAVGEW | 0.671 ± 0.022
62 | GRWRRWSSEGLG | 0.684 ± 0.026
63 | GSAGYLCQCSDI | 0.681 ± 0.017
64 | GSCPPHPALPHL | 0.713 ± 0.048
65 | GSEAVQRKNESC | 0.724 ± 0.08
66 | GSFLSAQRPCPV | 0.661 ± 0.023
67 | GSFPPAAHFSPD | 0.702 ± 0.043
68 | GSGGGGGYVSGN | 0.69 ± 0.021
69 | GSKISIKDKAQV | 0.685 ± 0.07
70 | GSLSIVVCSFEF | 0.542 ± 0.044
71 | GSLVSKLGLGSG | 0.69 ± 0.011
72 | GSPAVACSSPFF | 0.754 ± 0.073
73 | GSRSKLPICGCL | 0.809 ± 0.18
74 | GSRSPEARARFV | 0.68748 ± 0.00064
75 | GSRSPPPLRPPP | 0.6755 ± 0.0012

Row | Sequence | protein stability index
76 | GSSCHFPARCPV | 0.659 ± 0.018
77 | GSSKVKEGNACR | 0.694 ± 0.057
78 | GSSRRMGEGVEM | 0.69 ± 0.02
79 | GSVMGVGLEKKI | 0.732 ± 0.052
80 | GSVRLLDNLQRL | 0.663 ± 0.057
81 | GSVTIDSMIHMR | 0.667 ± 0.037
82 | GSWLGVGDRLVC | 0.717 ± 0.17
83 | GSWMSGLWQTPV | 0.722 ± 0.065
84 | GTCWAGALGVVG | 0.684 ± 0.04
85 | GTDGGRSSLGCR | 0.718 ± 0.026
86 | GTDVGKVSASQG | 0.638 ± 0.037
87 | GTGGIFAVAPTL | 0.737 ± 0.044
88 | GTGRRRGWGVMG | 0.664 ± 0.026
89 | GTLWPLPCRPDG | 0.5607 ± 0.0021
90 | GTMAVWKGQRSG | 0.698 ± 0.04
91 | GTNARGGPINIG | 0.675 ± 0.0065
92 | GTRQLGRTEPGE | 0.695 ± 0.038
93 | GTTDVHLLLECE | 0.729 ± 0.011
94 | GTTNRMVTQKGF | 0.712 ± 0.024
95 | GVCCLWVGFQGG | 0.704 ± 0.017
96 | GVCGVSKGRRHR | 0.701 ± 0.018
97 | GVCWGNFGWRAV | 0.6839 ± 0.005
98 | GVDDGGGCCRVR | 0.773 ± 0.009
